Laboratory results published in patent US20200362051A1 (CRESCENDO BIOLOGICS, published 2020).

Key:
[1] = target: T1, rhesus CD137-human IgG1 Fc tagged protein (rhesus; human, UniProt F6W5G6 24-186); assay: SPR (Biacore T200), single cycle kinetics, rhesus CD137-Fc captured on Protein G chip, 25 C, 1:1 fit; average ± SD
T1 construct: also called rhesus CD137Fc; rhesus CD137Fc recombinant protein
T1 sequence: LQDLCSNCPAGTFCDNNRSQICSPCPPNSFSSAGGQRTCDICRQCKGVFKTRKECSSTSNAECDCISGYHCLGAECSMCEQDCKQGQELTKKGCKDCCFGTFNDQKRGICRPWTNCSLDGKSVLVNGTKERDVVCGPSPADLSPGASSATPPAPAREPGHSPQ
Experimental: (§1) The Biacore T200 instrument was used to study the interaction between VH with human and rhesus CD137-human IgG1 Fc tagged protein by surface plasmon resonance (SPR). Single cycle kinetics assays used to evaluate the kinetics and affinity of the interaction. Experiments were performed at 25° C. in HBS-EP+ assay buffer with a flow rate of 30 μl/minute. A Protein G chip was used to capture the Fc tagged recombinant CD137 diluted to 2 μg/ml to one of the flow cells over 7 seconds. A second flow cell without any captured CD137 was used as the reference cell. A five point, three-fold dilution series of VH was made with a top concentration of 60 nM. The binding kinetics were followed by flowing these over the chip surface. The contact time for each of the binding steps was 180 seconds and the dissociation step was 1800 and 3600 seconds for rhesus and human CD137 respectively. After each run, the sensors were regenerated with glycine pH 1.5 to remove the captured CD137. The data was fitted to a 1:1 binding model after double reference subtraction using the Biacore T200 Evaluation software.

[2] = target: T2, human PSMA expressed on cells (human, UniProt Q04609 1-750); assay: dual-binding cell ELISA: CHO-PSMA cells, bound construct detected with 1 nM CD137huFc and anti-huFc-HRP; average ± SD, n=3
T2 construct: Type II membrane glycoprotein; also called CHO human PSMA; CHO PSMA
T2 sequence (Q04609 whole entry): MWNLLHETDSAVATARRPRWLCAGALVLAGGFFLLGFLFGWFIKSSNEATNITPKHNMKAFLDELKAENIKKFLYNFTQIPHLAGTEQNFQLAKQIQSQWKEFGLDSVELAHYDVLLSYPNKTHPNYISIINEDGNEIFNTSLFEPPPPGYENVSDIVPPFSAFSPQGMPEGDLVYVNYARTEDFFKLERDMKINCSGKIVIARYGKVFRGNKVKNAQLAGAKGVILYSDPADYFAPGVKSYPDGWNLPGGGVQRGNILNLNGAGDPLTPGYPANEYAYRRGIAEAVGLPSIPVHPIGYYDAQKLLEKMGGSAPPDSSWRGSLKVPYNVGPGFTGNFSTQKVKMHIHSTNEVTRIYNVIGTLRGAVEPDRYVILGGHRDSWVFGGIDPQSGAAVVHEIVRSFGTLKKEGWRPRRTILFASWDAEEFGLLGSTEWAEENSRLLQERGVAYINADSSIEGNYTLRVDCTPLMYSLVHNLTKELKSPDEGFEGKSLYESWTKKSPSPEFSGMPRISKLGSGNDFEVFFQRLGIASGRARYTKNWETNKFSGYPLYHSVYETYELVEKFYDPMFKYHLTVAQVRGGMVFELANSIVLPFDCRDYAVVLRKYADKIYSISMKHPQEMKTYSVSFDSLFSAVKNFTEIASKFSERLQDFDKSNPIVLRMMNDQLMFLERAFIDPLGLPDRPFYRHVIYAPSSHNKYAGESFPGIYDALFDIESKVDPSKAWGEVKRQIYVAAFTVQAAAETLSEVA
Experimental: (§2) Dual target engagement of CD137 and PSMA by the bispecific molecules was assessed using an ELISA format and by flow cytometry with T cells. For ELISA, CHO-PSMA cells (20000/well) were seeded into 96 well plates (Greiner cat no. 353872) in Hams F12 supplemented with L-Glutamine+Blasticidin+Tetracycline and incubated at 37° C. with 5% CO₂ overnight. All subsequent steps were performed at room temperature and included washes with PBS between each step. Plates were blocked with PBS/0.1% BSA for 1 hour then serially diluted Humabody® VH were added and allowed to bind for 1 hour. Following removal of unbound VH, 1 nM CD137huFc (Acro Biosystems cat no. 41B-H5258) was added to the wells and incubated for 1 hour. A 1:3000 dilution of Anti-huFc-HRP (Jackson ImmunoResearch cat no. 109-035-098) was subsequently added for 1 hour and plates developed by addition of TMB. The reaction was stopped by addition of 0.5M sulphuric acid and plates read on BMG PheraStar at Absorbance 450 nm. […] Human CD8+ T cells pre-stimulated for 48 hours with PMA/ionomycin were washed with FACS buffer (PBS supplemented with 10% human serum and 0.05% sodium azide) by centrifugation. Serially diluted bispecific and trispecific Humabody VH construct were added to the cells for 1 hour on ice. Plates were washed with FACS buffer then detection mix containing 5 nM biotinylated-PSMA, 20 nM Streptavidin AlexaFluor488 and Live/Dead NearIR cell stain dilution added. Plates were incubated at 4° C. for 1 hour then washed twice with FACS buffer by centrifugation. Cells were fixed by addition 1× BD Cell fix solution, then washed twice with PBS by centrifugation and the cell pellets resuspended in PBS. Fluorescence was measured in the RL2-H channels (Live/Dead stain) and BL1-H channel (AlexaFluor488 stain) on the iQue Plus Screener (IntelliCyt). The bispecific and trispecific molecules were able to simultaneously bind human CD8+ T cells and PSMA protein.

[3] = target: T3, human CD137 expressed on cells (human, UniProt Q07011 24-255); assay: dual-binding flow cytometry: pre-stimulated human CD8+ T cells, bound construct detected with 5 nM biotinylated-PSMA and streptavidin-AlexaFluor488; average ± SD, at least 6 donors
T3 construct: Whole entry with its signal peptide; also called 4-1BB; TNFRS9
T3 sequence (Q07011 24-255 limits assumed): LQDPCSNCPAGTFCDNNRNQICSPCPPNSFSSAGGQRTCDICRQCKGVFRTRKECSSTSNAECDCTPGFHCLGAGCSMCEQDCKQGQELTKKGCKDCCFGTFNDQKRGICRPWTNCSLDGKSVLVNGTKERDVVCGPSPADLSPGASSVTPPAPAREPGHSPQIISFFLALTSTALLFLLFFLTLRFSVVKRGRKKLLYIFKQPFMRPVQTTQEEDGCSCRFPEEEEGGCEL
Experimental: as §2, with “Serially diluted bispecific and trispecific Humabody VH construct were added to the cells for 1 hour on ice. Plates were washed with FACS buffer then detection mix containing 5 nM biotinylated-PSMA, 20 nM Streptavidin AlexaFluor488 and Live/Dead NearIR cell stain dilution added. Plates were incubated at 4° C. for 1 hour then washed twice with FACS buffer by centrifugation. Cells were fixed by addition 1× BD Cell fix solution, then washed twice with PBS by centrifugation and the cell pellets resuspended in PBS.” left out, “The bispecific and trispecific molecules were able to simultaneously bind human CD8+ T cells and PSMA protein.” left out

[4] = target: T4, human CD137-human Fc chimeric protein (Acro Biosystems cat no. 41B-H5258) (human, UniProt Q07011 24-186); assay: dual binding cell based ELISA: serially diluted VH on plated CHO human PSMA cells, then 1 nM CD137huFc, detection with anti human Fc-HRP, absorbance 450 nm
T4 construct: Bought protein; also called CD137-Fc tag protein; CD137huFc; not shown: human IgG1 Fc
Experimental: Association 1—Binding of the trispecific molecule to CD137Fc captured on protein G biosensors. Association 2—binding of Human serum Albumin, Association 3—Binding of PSMA in the presence of Human serum albumin to minimise HSA dissociation. […] Dual target engagement of CD137 and PSMA by the bispecific molecules was assessed using an ELISA format and by flow cytometry with T cells. For ELISA, CHO-PSMA cells (20000/well) were seeded into 96 well plates (Greiner cat no. 353872) in Hams F12 supplemented with L-Glutamine+Blasticidin+Tetracycline and incubated at 37° C. with 5% CO₂ overnight. All subsequent steps were performed at room temperature and included washes with PBS between each step. Plates were blocked with PBS/0.1% BSA for 1 hour then serially diluted Humabody® VH were added and allowed to bind for 1 hour. Following removal of unbound VH, 1 nM CD137huFc (Acro Biosystems cat no. 41B-H5258) was added to the wells and incubated for 1 hour. A 1:3000 dilution of Anti-huFc-HRP (Jackson ImmunoResearch cat no. 109-035-098) was subsequently added for 1 hour and plates developed by addition of TMB. The reaction was stopped by addition of 0.5M sulphuric acid and plates read on BMG PheraStar at Absorbance 450 nm. […] Fluorescence was measured in the RL2-H channels (Live/Dead stain) and BL1-H channel (AlexaFluor488 stain) on the iQue Plus Screener (IntelliCyt). […]

[5] = target: T5, cynomolgus PSMA expressed on CHO cells (cynomolgus, UniProt A0A2K5VNZ0 1-750); assay: FMAT, CHO cynomolgus PSMA cells, detection with CD137huFc and anti human Fc-Alexa Fluor-488; n=3
T5 construct: whole, on cells; also called CHO cynomolgus PSMA cells

[6] = target: T1, rhesus CD137-human IgG1 Fc tagged …; assay: SPR (Biacore T200), single cycle kinetics, rhesus CD137-Fc captured on Protein G chip, 25 C, 1:1 fit
Experimental: as §1

B1: Humabody 1.113 (VHH)
VHH: EVQLVESGGGLVQPGGSLRLSCAASGFTLSNYWMNWVRQAPGKGLEWVANINQDGSERYYVDSVKGRFTISRDNAKNSLYLQMNSLRAEDTAVYYCARGGEGYGVDHYGLDVSGQGTTVTVSS
A Kd [1] of 270 pM, a koff [1] of 0.00028 s⁻¹ and a kon [1] of 1.1e+06 M⁻¹ s⁻¹ were found for B1 in this work.

B2: 4.1-6GS-1.113 (bispecific antibody)
chain: EVQLVESGGGVVQPGRSLRLSCAASGFSFSGYGMHWVRQAPGKGLEWVAYISYDGSNKYYADSVKGRFTISRDNSKNTLYLQMNSLRAEDTAVYYCAKDPAWGLRLGESSSYDFDIWGQGTMVTVSSGGGGSGGGGSGGGGSGGGGSGGGGSGGGGSEVQLVESGGGLVQPGGSLRLSCAASGFTLSNYWMNWVRQAPGKGLEWVANINQDGSERYYVDSVKGRFTISRDNAKNSLYLQMNSLRAEDTAVYYCARGGEGYGVDHYGLDVSGQGTTVTVSS
notes: the tested construct may be that one
An EC50 [2] of 570 pM and an EC50 [3] of 1300 pM were found for B2 in this work.

B3: Humabody VH 4.1 (VHH)
VHH: EVQLVESGGGVVQPGRSLRLSCAASGFSFSGYGMHWVRQAPGKGLEWVAYISYDGSNKYYADSVKGRFTISRDNSKNTLYLQMNSLRAEDTAVYYCAKDPAWGLRLGESSSYDFDIWGQGTMVTVSS
B3: no binding (tested: 1e-7 M (log10 -7)) [4].

B4: 4.1-6GS-1.113-6GS-VH (HSA)-4GS (bispecific antibody)
chain: EVQLVESGGGVVQPGRSLRLSCAASGFSFSGYGMHWVRQAPGKGLEWVAYISYDGSNKYYADSVKGRFTISRDNSKNTLYLQMNSLRAEDTAVYYCAKDPAWGLRLGESSSYDFDIWGQGTMVTVSSGGGGSGGGGSGGGGSGGGGSGGGGSGGGGSEVQLVESGGGLVQPGGSLRLSCAASGFTLSNYWMNWVRQAPGKGLEWVANINQDGSERYYVDSVKGRFTISRDNAKNSLYLQMNSLRAEDTAVYYCARGGEGYGVDHYGLDVSGQGTTVTVSSGGGGSGGGGSGGGGSGGGGSGGGGSGGGGSEVQLVESGGGLVQPGRSLRLSCAASGFTFHHYAMHWVRQAPGKGLEWVSGISWNGNKITYADSVKGRFTISRDNAKNSLYLQMNSLRAEDTALYYCVRDSSLFIVGAPTFEHWGRGTLVTVSSGGGGSGGGGSGGGGSGGGGS
notes: Trispecific single-chain fusion of three VH domains (PSMA, CD137, human serum albumin)
An EC50 [5] of 570 pM, a Kd [6] of 120 pM and a koff [6] of 5.2e-05 s⁻¹ were found for B4 in this work. For the same binder, the kon [6] was 440000 M⁻¹ s⁻¹ and the EC50 [2] was 2200 pM.

B5: 4.1-6GS-VH HSA 6GS-1.113-4GS (bispecific antibody)
chain: EVQLVESGGGVVQPGRSLRLSCAASGFSFSGYGMHWVRQAPGKGLEWVAYISYDGSNKYYADSVKGRFTISRDNSKNTLYLQMNSLRAEDTAVYYCAKDPAWGLRLGESSSYDFDIWGQGTMVTVSSGGGGSGGGGSGGGGSGGGGSGGGGSGGGGSEVQLVESGGGLVQPGRSLRLSCAASGFTFHHYAMHWVRQAPGKGLEWVSGISWNGNKITYADSVKGRFTISRDNAKNSLYLQMNSLRAEDTALYYCVRDSSLFIVGAPTFEHWGRGTLVTVSSGGGGSGGGGSGGGGSGGGGSGGGGSGGGGSEVQLVESGGGLVQPGGSLRLSCAASGFTLSNYWMNWVRQAPGKGLEWVANINQDGSERYYVDSVKGRFTISRDNAKNSLYLQMNSLRAEDTAVYYCARGGEGYGVDHYGLDVSGQGTTVTVSSGGGGSGGGGSGGGGSGGGGS
notes: Trispecific single-chain fusion of three VH domains (PSMA, human serum albumin, CD137)
An EC50 [2] of 1100 pM was found for B5 in this work.
